In patent WO2011161189A1 (dated 2011):

Columns and labels:
[1] = target: T1, human hepsin (recombinant EE-tagged, amino acids 45-417, enzymatically active two-chain form) (human, UniProt P05981 45-417); assay: Biacore (SPR)
T1 construct: range 45-417; The assays say only 'hepsin' or 'purified human hepsin'; also called hHepsin; purified hepsin

[2] = target: mouse hepsin (mouse, UniProt O35453 60-436, limits assumed); assay: cell-based or functional assay
[3] = target: T1, human hepsin (recombinant EE-tagged, …); assay: cell-based or functional assay
[4] = target: T1, human hepsin (recombinant EE-tagged, …); assay: SPR kinetics, antibody captured on CM5 chip, hepsin injected, 298 K
[5] = target: cynomolgus hepsin (cynomolgus monkey); assay: cell-based or functional assay
[6] = target: T1, human hepsin (recombinant EE-tagged, …); assay: enzyme kinetics (Ac-KQLR-AMC hydrolysis after preincubation), fit to tight binding inhibitor equations of the mixed type; apparent Ki

T1 sequence (P05981 other isoform, or with tags, fused parts or gaps limits assumed): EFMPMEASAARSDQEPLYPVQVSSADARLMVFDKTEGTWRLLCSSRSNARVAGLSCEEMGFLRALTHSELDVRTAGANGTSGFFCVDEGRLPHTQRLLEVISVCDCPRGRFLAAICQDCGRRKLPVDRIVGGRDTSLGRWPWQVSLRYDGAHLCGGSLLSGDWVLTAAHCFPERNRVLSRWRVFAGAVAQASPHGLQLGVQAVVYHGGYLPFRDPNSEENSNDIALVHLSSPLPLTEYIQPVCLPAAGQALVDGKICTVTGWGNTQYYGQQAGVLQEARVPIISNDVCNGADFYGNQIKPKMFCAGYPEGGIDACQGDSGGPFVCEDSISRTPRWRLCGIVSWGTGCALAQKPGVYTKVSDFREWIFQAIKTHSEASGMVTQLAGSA
mouse hepsin, sequence (O35453 60-436 limits assumed): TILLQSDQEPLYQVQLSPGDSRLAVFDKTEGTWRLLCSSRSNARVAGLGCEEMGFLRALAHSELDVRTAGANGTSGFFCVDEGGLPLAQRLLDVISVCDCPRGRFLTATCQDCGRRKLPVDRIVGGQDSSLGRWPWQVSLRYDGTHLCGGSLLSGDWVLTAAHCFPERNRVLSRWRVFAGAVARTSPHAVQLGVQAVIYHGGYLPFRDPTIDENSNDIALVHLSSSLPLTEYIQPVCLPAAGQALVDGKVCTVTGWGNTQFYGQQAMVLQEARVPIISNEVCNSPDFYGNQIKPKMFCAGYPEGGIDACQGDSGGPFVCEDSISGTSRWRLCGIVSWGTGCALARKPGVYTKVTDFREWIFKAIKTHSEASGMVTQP

Row | Binder | Kd [1] | IC 50 in enzymatic activity assay of murine hepsin [2] | IC 50 in enzymatic activity assay of human hepsin [3] | Kd [4] | IC 50, human hepsin inhibition assay (FRET peptide substrate) [3] | inhibition increase compared to the chimeric antibody [3] | inhibition increase compared to the murine antibody [3] | IC 50, cynomolgous hepsin assay (FRET peptide substrate) [5] | Ki [6]
1 | Mab 2.7.35 (antibody, V domains shown, Mouse monoclonal antibody from Balb/c hybridoma; also called mouse Mab 2.7.35; mH35) VH: QIQLVQSGPELKKPGETVKISCKASGYTFTDYSMRWVKQAPGKGLKWMGWINTETGNPTYADDFKGRFAFSLETSASTAYLQINNLKNEDTARYFCARGFAYWGQGTLVTVSA VL: QAVVTQESALTTSPGETVTLTCRSSTGAVTTSNYANWVQEKPDHLFTGLIGDTNNRAPGVPARFSGSLIGDKAALTITGAQTEDEAIYFCALWYSNHFIFGSGTKVTVL | 4 nM | > 200 nM | 14 nM | 31.5 nM |  |  |  |  | 
2 | Mab55 (antibody, V domains shown, Humanized variant of Mab 2.7.35, stably expressed in CHO; also called hH35; humanized antibody Mab55) VH: QVQLVQSGSELKKPGASVKVSCKASGYTFTDYSMRWVRQAPGQGLEWMGWINTETGSPTYADDFKGRFVFSLDTSVSTAYLQISSLKAEDTAVYYCARGFAYWGQGTLVTVSS VL: QTVVTQEPSLTVSPGGTVTLTCRSSTGAVTTSNYANWVQQKPGQAFRGLIGDTNNRAPWTPARFSGSLLGGKAALTLSGVQPEDEAEYYCALWYSNHFIFGSGTKVTVL |  |  |  | 7.1 nM | 1.02 nM | 6.7 fold | 14.7 fold | 0.99 nM | 0.39 nM
3 | Mab53 (antibody, V domains shown, Humanized variant of Mab 2.7.35) VH: QVQLVQSGAEVKKPGASVKVSCKASGYTFTDYSMRWVRQAPGQGLEWMGWINTETGNPAYAQKFQGRVTMTRDTSTSTVYMELSSLRSEDTAVYYCARGFAYWGQGTLVTVSS VL: QTVVTQEPSLTVSPGGTVTLTCRSSTGAVTTSNYANWVQQKPGQAFRGLIGDTNNRAPWTPARFSGSLLGGKAALTLSGVQPEDEAEYYCALWYSNHFIFGSGTKVTVL |  |  |  | 36 nM |  |  |  |  | 
4 | Mab 2.3.35 (antibody, V domains shown, also called antibody 2.3.35) VH: QVQLQQSGPELVKPGASVKVSCKASGYTFTDFVINWVKQRTGQGLEWIGEIYPRSNSIYSNEKFKGKATLTTDKSSNTAYMQVSSLTSEDSAVYFCARGSGDYAMDYWGQGTSVTVSS VL: ENVLTQSPAIMSASPGEKVTMTCSASSSVTYMHWYQQKSSTSPKLWIYDTSKLASGVPGRFSGSGSGNSYSLTIRSMEAEDVATYFCFQGSGFPLTFGGGTKLEIK | 22 nM |  | 7 nM |  |  |  |  |  | 
